From PMC5881884 (Biochimica et biophysica acta, 2017)

Target: the molecule itself
Test: native gel or EMSA

B1: 14-3-3ζ pseudo-WT (C25A, C189A) (natural protein)
chain: MDKNELVQKAKLAEQAERYDDMAAAMKSVTEQGAELSNEERNLLSVAYKNVVGARRSSWRVVSSIEQKTEGAEKKQQMAREYREKIETELRDICNDVLSLLEKFLIPNASQAESKVFYLKMKGDYYRYLAEVAAGDDKKGIVDQSQQAYQEAFEISKKEMQPTHPIRLGLALNFSVFYYEILNSPEKAASLAKTAFDEAIAELDTLSEESYKDSTLIMQLLRDNLTLWTSDTQGDEAEAGEGGEN
stoichiometry N: 2
